According to the supplement of paper PMC10567573:

B1: WEE1 (parent)
chain: FLGSSFSPVRCGGPGDASPRGCGA

Variants of: B1
Assay: protein stability index of a GFP-peptide fusion (GPS, HEK-293T) (PSI 1-6); higher = more stable
Conditions: c terminus: a fixed tail appended
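Also: lentivirally expressed fusions sorted by FACS into six bins by GFP to DsRed ratio, PSI derived from sequencing read proportions per bin multiplied by bin number.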

In order of falling protein stability index:
1. FLGSSFSPVWCGGPGDASPRGCGA [R10W]  4.78
2. FLGSSFSPVRDGGPGDASPRGCGA [C11D]  3.3
3. FLGSSFSPVECGGPGDASPRGCGA [R10E]  3.27
4. FLGSSFSPCRCGGPGDASPRGCGA [V9C]  3.15
5. FLGSSFSPVRCHGPGDASPRGCGA [G12H]  3.11
6. FLGSSFSPVFCGGPGDASPRGCGA [R10F]  2.95
7. FLGSSFSWVRCGGPGDASPRGCGA [P8W]  2.83
8. FLGSSFSPERCGGPGDASPRGCGA [V9E]  2.79
9. FLGSSFSPVRAGGPGDASPRGCGA [C11A]  2.78
10. FLGSSFSPMRCGGPGDASPRGCGA [V9M]  2.69
11. FLGSSFSPVRRGGPGDASPRGCGA [C11R]  2.69
12. FLGSSFSPVKCGGPGDASPRGCGA [R10K]  2.68
13. FLGSSFSPVDCGGPGDASPRGCGA [R10D]  2.68
14. FLGSSFSPVRCYGPGDASPRGCGA [G12Y]  2.65
15. FLGSSFSPVHCGGPGDASPRGCGA [R10H]  2.63
16. FLGSSFSPVRSGGPGDASPRGCGA [C11S]  2.62
17. FLGSSFSPVRCGGPFDASPRGCGA [G15F]  2.6
18. FLGSSFSPDRCGGPGDASPRGCGA [V9D]  2.58
19. FLGSSFSPPRCGGPGDASPRGCGA [V9P]  2.58
20. FLGSSFSPVRCNGPGDASPRGCGA [G12N]  2.56
21. FLGSSFSPVRNGGPGDASPRGCGA [C11N]  2.53
22. FLGSSFSPVLCGGPGDASPRGCGA [R10L]  2.52
23. FLGSSFSPNRCGGPGDASPRGCGA [V9N]  2.51
24. FLGSSFSSVRCGGPGDASPRGCGA [P8S]  2.51
25. FLGSSFSPVRQGGPGDASPRGCGA [C11Q]  2.48
26. FLGSSFSPVRPGGPGDASPRGCGA [C11P]  2.44
27. FLGSSFSPVRCLGPGDASPRGCGA [G12L]  2.44
28. FLGSSFSPVRMGGPGDASPRGCGA [C11M]  2.4
29. FLGSSFSPRRCGGPGDASPRGCGA [V9R]  2.39
30. FLGSSFSPVREGGPGDASPRGCGA [C11E]  2.39
31. FLGSSFSPVRCPGPGDASPRGCGA [G12P]  2.38
32. FLGSSFSPVRCGGPYDASPRGCGA [G15Y]  2.37
33. FLGSSFSPVRGGGPGDASPRGCGA [C11G]  2.34
34. FLGSSFSPVNCGGPGDASPRGCGA [R10N]  2.33
35. FLGSSFSPVRCKGPGDASPRGCGA [G12K]  2.31
36. FLGSSFSPVRTGGPGDASPRGCGA [C11T]  2.27
37. FLGSSFSPVRCGGPTDASPRGCGA [G15T]  2.25
38. FLGSSFSPGRCGGPGDASPRGCGA [V9G]  2.25
39. FLGSSFSPVTCGGPGDASPRGCGA [R10T]  2.25
40. FLGSSFSPVICGGPGDASPRGCGA [R10I]  2.25
41. FLGSSFSPHRCGGPGDASPRGCGA [V9H]  2.22
42. FLGSSFSPVRLGGPGDASPRGCGA [C11L]  2.22
43. FLGSSFSPWRCGGPGDASPRGCGA [V9W]  2.19
44. FLGSSFSPVRFGGPGDASPRGCGA [C11F]  2.19
45. FLGSSFSLVRCGGPGDASPRGCGA [P8L]  2.15
46. FLGSSFSPVRIGGPGDASPRGCGA [C11I]  2.12
47. FLGSSFSPARCGGPGDASPRGCGA [V9A]  2.11
48. FLGSSFSPVRHGGPGDASPRGCGA [C11H]  2.1
49. FLGSSFSPVRCRGPGDASPRGCGA [G12R]  2.1
50. FLGSSFSPVRCQGPGDASPRGCGA [G12Q]  2.07
51. FLGSSFSNVRCGGPGDASPRGCGA [P8N]  2.05
52. FLGSSFSPVRCCGPGDASPRGCGA [G12C]  2.04
53. FLGSSFSPVPCGGPGDASPRGCGA [R10P]  2.04
54. FLGSSFSPVRCEGPGDASPRGCGA [G12E]  2.03
55. FLGSSFSPVRYGGPGDASPRGCGA [C11Y]  2.01
56. FLGSSFSPVRCSGPGDASPRGCGA [G12S]  2
57. FLGSSFSPVVCGGPGDASPRGCGA [R10V]  2
58. FLGSSFSVVRCGGPGDASPRGCGA [P8V]  1.97
59. FLGSSFSPVRVGGPGDASPRGCGA [C11V]  1.95
60. FLGSSFSPKRCGGPGDASPRGCGA [V9K]  1.93
61. FLGSSFSPVRKGGPGDASPRGCGA [C11K]  1.91
62. FLGSSFSPVRCWGPGDASPRGCGA [G12W]  1.9
63. FLGSSFSPSRCGGPGDASPRGCGA [V9S]  1.88
64. FLGSSFSPTRCGGPGDASPRGCGA [V9T]  1.88
65. FLGSSFSMVRCGGPGDASPRGCGA [P8M]  1.85
66. FLGSSFSPVRCDGPGDASPRGCGA [G12D]  1.85
67. FLGSSFSPVQCGGPGDASPRGCGA [R10Q]  1.84
68. FLGSSFSPVRCMGPGDASPRGCGA [G12M]  1.83
69. FLGSSFSPVACGGPGDASPRGCGA [R10A]  1.83
70. FLGSSFSGVRCGGPGDASPRGCGA [P8G]  1.81
71. FLGSSFSPIRCGGPGDASPRGCGA [V9I]  1.8
72. FLGSSFSPVSCGGPGDASPRGCGA [R10S]  1.8
73. FLGSSFSYVRCGGPGDASPRGCGA [P8Y]  1.78
74. FLGSSFSPVRCAGPGDASPRGCGA [G12A]  1.78
75. FLGSSFSPQRCGGPGDASPRGCGA [V9Q]  1.76
76. FLGSSFSPVRCGGPPDASPRGCGA [G15P]  1.75
77. FLGSSFSPVCCGGPGDASPRGCGA [R10C]  1.73
78. FLGSSFSHVRCGGPGDASPRGCGA [P8H]  1.71
79. FLGSSFSKVRCGGPGDASPRGCGA [P8K]  1.66
80. FLGSSFSQVRCGGPGDASPRGCGA [P8Q]  1.64
81. FLGSSFSPVMCGGPGDASPRGCGA [R10M]  1.64
82. FLGSSFSPVRCTGPGDASPRGCGA [G12T]  1.63
83. FLGSSFSRVRCGGPGDASPRGCGA [P8R]  1.48
84. FLGSSFSPVRWGGPGDASPRGCGA [C11W]  1.46
85. FLGSSFSPVRCGGPQDASPRGCGA [G15Q]  1.45
86. FLGSSFSTVRCGGPGDASPRGCGA [P8T]  1.43
87. FLGSSFSPVRCVGPGDASPRGCGA [G12V]  1.43
88. FLGSSFSPVRCFGPGDASPRGCGA [G12F]  1.43
89. FLGSSFSPVGCGGPGDASPRGCGA [R10G]  1.42
90. FLGSSFSPVRCIGPGDASPRGCGA [G12I]  1.3
91. FLGSSFSPYRCGGPGDASPRGCGA [V9Y]  1.25
92. FLGSSFSIVRCGGPGDASPRGCGA [P8I]  1.23
93. FLGSSFSPLRCGGPGDASPRGCGA [V9L]  1.1
94. FLGSSFSPVYCGGPGDASPRGCGA [R10Y]  1.07
